Experimental data published in patent publication US20250282880A1 (NUMAB THERAPEUTICS, published 2025).
Read-outs that look alike come from different tables or passages of the source.

Tests used:
IL-4R on HEK-Blue cells [1] = target: T1, IL-4R on HEK-Blue cells (human, UniProt P24394 26-825); experiment: cell-based or functional assay
cynomolgus IL-4R-Fc [2] = target: T2, cynomolgus IL-4R-Fc (cynomolgus monkey (Macaca fascicularis), UniProt A0A2K5V580 33-239); experiment: SPR, capture setup: cynomolgus IL-4R-Fc captured, scFv as analyte
T2 construct: also called cynomolgus IL-4R (capture setup); not shown: Fc part
Description: (§1) Affinity of the 16 humanized scFvs (derived from 5 rabbit monoclonal antibodies) to human IL-4R was determined by SPR analysis on a T200 device (Biacore, GE Healthcare). Human IL-4R-Fc was captured via an anti-human IgG-Fc coupled to a carboxylmethylated dextran surface and the scFvs were injected as analyte. After each analyte injection cycle the sensor chip was regenerated and new antigen was captured. The scFvs were measured using a dose response multi-cycle kinetic assay with seven analyte concentrations ranging from 0.12 to 90 nM diluted in running buffer. Obtained sensorgrams were fitted using a 1:1 binding model.
(§2) Cross-reactivity to cynomolgus IL-4R was measured using the same setup as for the analysis of human IL-4R affinities, with the difference that cynomolgus IL-4R-Fc was captured instead of human IL-4R-Fc. To determine affinities for marmoset IL-4R, a direct setup was used since only extracellular domain (ECD) of marmoset IL-4R was available. Marmoset ECD was immobilized directly onto the sensor chip and a titration series of scFvs was injected as analyte. To allow for comparison between KD values obtained for cynomolgus and marmoset IL-4R, affinities to cynomolgus IL-4R ECD were also determined using a direct setup.

Marmoset IL-4R ECD = target: T3, Marmoset IL-4R ECD (marmoset (Callithrix jacchus), UniProt Q0PIT7 26-232); experiment: SPR, direct setup: marmoset IL-4R ECD immobilized, scFv as analyte
T3 construct: also called marmoset monkey IL-4R
T3 sequence (Q0PIT7 entry or part of it limits assumed): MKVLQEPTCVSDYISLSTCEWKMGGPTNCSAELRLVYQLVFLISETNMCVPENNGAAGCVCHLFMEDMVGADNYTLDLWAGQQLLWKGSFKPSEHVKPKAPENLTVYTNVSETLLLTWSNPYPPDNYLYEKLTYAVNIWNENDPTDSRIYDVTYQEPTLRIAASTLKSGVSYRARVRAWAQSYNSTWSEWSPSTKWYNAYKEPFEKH
Description: as §2

Biotinylated IL-4R [3] = target: T4, Biotinylated IL-4R (human, UniProt P24394 26-232, limits assumed, biotinylated); experiment: competitive ELISA: IL-4 coated, biotinylated IL-4R preincubated with scFv
T4 construct: also called human IL-4R; hIL-4R
From the text: (§3) Bound biotinylated IL-4R was then detected using streptavidin-HRP.
Potency of humanized scFvs was further determined using a competitive ELISA.

Human IL-4R-Fc [4] = target: T5, Human IL-4R-Fc (human, UniProt P24394 26-232); experiment: SPR (Biacore T200), human IL-4R-Fc captured via anti-human IgG-Fc, scFv as analyte, 1:1 model
T5 construct: not shown: Fc part (captured via anti-human IgG-Fc)
Description: as §1

cynomolgus IL-4R ECD = target: T6, cynomolgus IL-4R ECD (cynomolgus monkey (Macaca fascicularis), UniProt A0A2K5V556 26-232); experiment: SPR, direct setup: cynomolgus IL-4R ECD immobilized, scFv as analyte
T6 construct: immobilized directly on the sensor chip; also called cynomolgus IL-4R (direct setup)
T6 sequence (A0A2K5V556 entry or part of it limits assumed): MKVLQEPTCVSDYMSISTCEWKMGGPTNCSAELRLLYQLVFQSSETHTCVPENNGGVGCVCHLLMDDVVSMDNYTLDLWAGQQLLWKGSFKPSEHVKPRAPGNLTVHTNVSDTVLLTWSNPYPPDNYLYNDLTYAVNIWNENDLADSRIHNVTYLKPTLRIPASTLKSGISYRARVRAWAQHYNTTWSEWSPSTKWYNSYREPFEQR
Description: as §2

Human IL-4R-Fc [5] = target: T5, Human IL-4R-Fc; experiment: SPR (Biacore T200), human IL-4R-Fc captured, scFv as analyte 0.12 to 90 nM, 1:1 model
Description: as §1
The scFvs were measured using a dose response multi-cycle kinetic assay with seven analyte concentrations ranging from 0.12 to 90 nM diluted in running buffer. Obtained sensorgrams were fitted using a 1:1 binding model.

IL-4R on HEK-Blue cells [6] = target: T1, IL-4R on HEK-Blue cells; experiment: cell-based or functional assay; remark: listed apart in the source
cynomolgus IL-4R-Fc [7] = target: T2, cynomolgus IL-4R-Fc; experiment: SPR, capture setup: cynomolgus IL-4R-Fc captured, scFv as analyte; remark: listed apart in the source
Biotinylated IL-4R [8] = target: T4, Biotinylated IL-4R; experiment: competitive ELISA: IL-4 coated, biotinylated IL-4R preincubated with scFv; remark: listed apart in the source
From the text: as §3

IL-4R on HEK-Blue cells [9] = target: T1, IL-4R on HEK-Blue cells; experiment: cell-based or functional assay; remark: listed apart in the source
[10] = target: T7, recombinant human IL-4R protein (ECD with His Tag, Sino Biological) (human, UniProt P24394 26-232); experiment: SPR (Biacore T200), Morrison antibody captured via anti-human IgG-Fc, human IL-4R ECD-His as analyte 0.175 to 45 nM, 1:1 model
T7 construct: extracellular domain; analyte in the SPR of the Morrison-H antibodies; also called human IL-4R ECD; not shown: His tag
Description: (§4) In this SPR experiment, Morrison molecules were captured via an anti-human IgG-Fc antibody (Human Antibody Capture Kit; Biacore, Cytiva) covalently immobilized to a carboxylmethylated dextran surface (CM5 sensorchip; Biacore, Cytiva) and a titration series of human IL-4R ECD was injected as analyte. After each analyte injection cycle, the sensor chip was regenerated (MgCl₂), and new Morrison antibody was subsequently re-captured. […] The apparent dissociation (kd) and association (kₐ) rate constants and the apparent dissociation equilibrium constant (KD) were calculated with the Biacore analysis software (Biacore Evaluation software Version 3.2, Cytiva) using one-to-one Langmuir binding model and quality of the fits was monitored based on Chi2 and U-value, which are measures for the quality of the curve fitting. The binding level was calculated as the maximum stability binding achieved normalized to the theoretical Rmax. Cross-reactivity to cynomolgus monkey IL-4R was measured using the same setup as for the analysis of human IL-4R kinetics, with the difference that recombinant cynomolgus monkey IL-4R (ECD with His-tag, Acro Biosystems) protein was used as analyte instead of human IL-4R.

IL-4R on HEK-Blue cells [11] = target: T1, IL-4R on HEK-Blue cells; experiment: cell-based or functional assay; remark: listed apart in the source
[12] = target: T8, recombinant cynomolgus monkey IL-4R (ECD with His-tag, Acro Biosystems) (cynomolgus monkey, UniProt A0A2K5V556 26-232); experiment: SPR (Biacore T200), Morrison antibody captured via anti-human IgG-Fc, cynomolgus IL-4R ECD-His as analyte, 1:1 model
T8 construct: analyte in the SPR of the Morrison-H antibodies; also called cynomolgus IL-4R
T8 sequence (A0A2K5V556 entry or part of it limits assumed): as above
Description: as §4

Binder	IC50, neutralization of hIL-4-induced signaling in reporter gene assay (IL-4R on HEK-Blue cells [1]) [ng/mL]	IC50, neutralization of hIL-13-induced signaling in reporter gene assay (IL-4R on HEK-Blue cells [1]) [ng/mL]	rel. IC50 (IC50, dupilumab/IC50, test sample), hIL-4-induced signaling (IL-4R on HEK-Blue cells [1]) [ratio]	rel. IC50 (IC50, dupilumab/IC50, test sample), hIL-13-induced signaling (IL-4R on HEK-Blue cells [1]) [ratio]	Kd (cynomolgus IL-4R-Fc [2]) [pM]	koff (cynomolgus IL-4R-Fc [2]) [s⁻¹]	kon (cynomolgus IL-4R-Fc [2]) [M⁻¹ s⁻¹]	Kd (Marmoset IL-4R ECD) [pM]	koff (Marmoset IL-4R ECD) [s⁻¹]	kon (Marmoset IL-4R ECD) [M⁻¹ s⁻¹]	IC50 (Biotinylated IL-4R [3]) [ng/mL]	rel. IC50 (IC50, dupilumab/IC50, test sample) (Biotinylated IL-4R [3]) [ratio]	Kd (Human IL-4R-Fc [4]) [pM]	koff (Human IL-4R-Fc [4]) [s⁻¹]	kon (Human IL-4R-Fc [4]) [M⁻¹ s⁻¹]	Kd (cynomolgus IL-4R ECD) [pM]	koff (cynomolgus IL-4R ECD) [s⁻¹]	kon (cynomolgus IL-4R ECD) [M⁻¹ s⁻¹]	Mean IC50, neutralization of human IL-4-induced signaling in the stat-6 reporter gene assay (IL-4R on HEK-Blue cells [9]) [pM]	Mean rel. IC50 [IC50 dupilumab/IC50 sample], human IL-4-induced signaling (IL-4R on HEK-Blue cells [9]) [ratio]	other results
PRO1517 (scFv, humanized scFv (VL-linker-VH), CDR graft of rabbit clone 44-34-C10; also called 44-34-C10-sc01; 44-34-C10 sc01) scFv: DIQMTQSPSSLSASVGDRVTITCQASEDIESYLAWYQQKPGKAPKLLIYRASTLAYGVPSRFSGSGSGTDFTLTISSLQPEDFATYYCLGSSYSTGSNIFGTGTKVTVLGGGGGSGGGGSGGGGSGGGGSEVQLVESGGGLVQPGGSLRLSCAASGFSSSSAHYMCWVRQAPGKGLEWIGCIYAGSRGSTYYASWAKGRFTISRDNSKNTVYLQMNSLRAEDTAVYYCARAAFVNRGVSWIWPYYFSLWGQGTLVTVSS	1.44	1.83	0.39	0.57	94.6	0.000182	1.92e+06	392	0.00105	2.67e+06	0.54	3.46	5.5	1.95e-05	3.55e+06	681	0.000404	594000	–	–	–
PRO1535 (scFv, humanized scFv (VL-linker-VH), Full graft of rabbit clone 44-34-C10; also called 44-34-C10-sc04; 44-34-C10 sc04) scFv: DIQMTQSPSSLSASVGDRVTITCQASEDIESYLAWYQQKPGKPPKLLIYRASTLAYGVPSRFSGSGSGTDFTLTISSLQPEDFATYYCLGSSYSTGSNIFGTGTKVTVLGGGGGSGGGGSGGGGSGGGGSESQLVESGGGLVQPGGSLRLSCAASGFSSSSAHYMCWVRQAPGKGLEWIACIYAGSRGSTYYASWAKGRFTISKDNSKNTVYLQMNSLRAEDTAVYFCARAAFVNRGVSWIWPYYFSLWGQGTLVTVSS	1.15	2.3	1.02	0.99	165	0.000264	1.6e+06	787	0.00254	3.23e+06	1.92	0.98	19.9	5.42e-05	2.72e+06	376	0.000238	634000	–	–	–
PRO1898 (scFv, optimized variant of PRO1517 (VL S14R, T87R, AHo numbering); scFv VL-linker-VH; also called 44-34-C10-sc08) scFv: DIQMTQSPSSLSARVGDRVTITCQASEDIESYLAWYQQKPGKAPKLLIYRASTLAYGVPSRFSGSGSGRDFTLTISSLQPEDFATYYCLGSSYSTGSNIFGTGTKVTVLGGGGGSGGGGSGGGGSGGGGSEVQLVESGGGLVQPGGSLRLSCAASGFSSSSAHYMCWVRQAPGKGLEWIGCIYAGSRGSTYYASWAKGRFTISRDNSKNTVYLQMNSLRAEDTAVYYCARAAFVNRGVSWIWPYYFSLWGQGTLVTVSS	–	–	–	–	–	–	–	–	–	–	–	–	–	–	–	–	–	–	–	–	Kd (Human IL-4R-Fc [5]): 7.91 pM; koff (Human IL-4R-Fc [5]): 1.7e-05 s⁻¹; kon (Human IL-4R-Fc [5]): 2.15e+06 M⁻¹ s⁻¹; IC50, neutralization of hIL-4 induced signaling in reporter gene assay (IL-4R on HEK-Blue cells [6]): 1 ng/mL; IC50, neutralization of hIL-13 induced signaling in reporter gene assay (IL-4R on HEK-Blue cells [6]): 1.15 ng/mL; rel. IC50 (IC50, dupilumab/IC50, test sample), hIL-4 induced signaling (IL-4R on HEK-Blue cells [6]): 1.15 ratio; rel. IC50 (IC50, dupilumab/IC50, test sample), hIL-13 induced signaling (IL-4R on HEK-Blue cells [6]): 0.87 ratio; Kd (cynomolgus IL-4R-Fc [7]): 90.8 pM; koff (cynomolgus IL-4R-Fc [7]): 0.000109 s⁻¹; kon (cynomolgus IL-4R-Fc [7]): 1.2e+06 M⁻¹ s⁻¹; IC50 (Biotinylated IL-4R [8]): 3.41 ng/mL; rel. IC50 (IC50, dupilumab/IC50, test sample) (Biotinylated IL-4R [8]): 1.95 ratio
PRO2198 (bispecific antibody, human IgG4 S228P, kappa, IgG4 (S228P) Morrison-H, IgG4-(scFv)2: Fab arms 44-34-C10-sc08 (anti-IL-4R), anti-IL-31 scFv 50-09-D07-sc04 fused to the C-terminus of the heavy chain; also called Morrison-H antibody PRO2198; anti-IL-4RxIL-31 bispecific antibody) light: DIQMTQSPSSLSARVGDRVTITCQASEDIESYLAWYQQKPGKAPKLLIYRASTLAYGVPSRFSGSGSGRDFTLTISSLQPEDFATYYCLGSSYSTGSNIFGQGTKVEIKRTVAAPSVFIFPPSDEQLKSGTASVVCLLNNFYPREAKVQWKVDNALQSGNSQESVTEQDSKDSTYSLSSTLTLSKADYEKHKVYACEVTHQGLSSPVTKSFNRGEC heavy: not shown	–	–	–	–	–	–	–	–	–	–	–	–	–	–	–	–	–	–	23.9	0.42	Retained IC50 with and without IL-31 excess (n = 1) [IC50, no IL-31/IC50, with IL-31] (IL-4R on HEK-Blue cells [9]): 0.71 ratio; Kd [10]: 291 pM; koff [10]: 0.000101 s⁻¹; kon [10]: 352000 M⁻¹ s⁻¹; Mean IC50, neutralization of human IL-13 induced signaling in the stat-6 reporter gene assay (IL-4R on HEK-Blue cells [11]): 22.1 pM; Mean rel. IC50 [IC50 dupilumab/IC50 sample], human IL-13 induced signaling (IL-4R on HEK-Blue cells [11]): 0.42 ratio; Kd [12]: 144 pM; koff [12]: 4.9e-05 s⁻¹; kon [12]: 370000 M⁻¹ s⁻¹
PRO2199 (bispecific antibody, human IgG4 S228P, kappa, IgG4 (S228P) Morrison-H, IgG4-(scFv)2: Fab arms 44-34-C10-sc09 (anti-IL-4R), anti-IL-31 scFv 50-09-D07-sc04 fused to the C-terminus of the heavy chain; also called Morrison-H antibody PRO2199; anti-IL-4RxIL-31 bispecific antibody) light: DIQMTQSPSSLSASVGDRVTITCQASEDIESYLAWYQQKPGKAPKLLIYRASTLAYGVPSRFSGSGSGTDFTLTISSLQPEDFATYYCLGSSYSTGSNIFGQGTKVEIKRTVAAPSVFIFPPSDEQLKSGTASVVCLLNNFYPREAKVQWKVDNALQSGNSQESVTEQDSKDSTYSLSSTLTLSKADYEKHKVYACEVTHQGLSSPVTKSFNRGEC heavy: not shown	–	–	–	–	–	–	–	–	–	–	–	–	–	–	–	–	–	–	11.5	0.72	Retained IC50 with and without IL-31 excess (n = 1) [IC50, no IL-31/IC50, with IL-31] (IL-4R on HEK-Blue cells [9]): 1.25 ratio; Kd [10]: 197 pM; koff [10]: 5.76e-05 s⁻¹; kon [10]: 293000 M⁻¹ s⁻¹; Mean IC50, neutralization of human IL-13 induced signaling in the stat-6 reporter gene assay (single analysis) (IL-4R on HEK-Blue cells [11]): 11.3 pM; Mean rel. IC50 [IC50 dupilumab/IC50 sample], human IL-13 induced signaling (single analysis) (IL-4R on HEK-Blue cells [11]): 0.69 ratio; Kd [12]: 35.1 pM; koff [12]: 3.44e-05 s⁻¹; kon [12]: 980000 M⁻¹ s⁻¹
